Results taken from US9708375 (Amgen, dated 2017).

Target: T1, biotin labeled human recombinant Sclerostin (human, UniProt Q9BQB4 24-213)
T1 construct: also called human Sclerostin; huSOST
T1 sequence (looked up): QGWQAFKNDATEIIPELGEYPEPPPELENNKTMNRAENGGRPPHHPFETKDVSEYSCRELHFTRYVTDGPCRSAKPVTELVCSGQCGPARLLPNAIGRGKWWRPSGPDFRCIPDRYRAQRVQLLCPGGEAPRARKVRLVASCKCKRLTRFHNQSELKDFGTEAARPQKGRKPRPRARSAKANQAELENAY
Assay: AlphaScreen Sclerostin/LRP-6 inhibition

Row | Binder | binding result
1 | P7080 (bispecific antibody, human IgG2, lambda, also called P7009; Ab-Avimer-7 (P7080A)) light: YVLTQPPSVSVAPGQTARITCGGNNIGSKSVHWYQQKPGQAPVLVVYDDSDRPSEIPERFSGSNSGNTATLTISRVEAGDEADYYCQVWDSSSDHVVFGGGTRLTVLGQPKAAPSVTLFPPSSEELQANKATLVCLISDFYPGAVTVAWKADSSPVKAGVETTTPSKQSNNKYAASSYLSLTPEQWKSHRSYSCQVTHEGSTVEKTVAPTECSSSGGSCPAYTEFLCKDSDRCFPSEWRCDGEMDCVDGSDELHCAYHTCAPNQFRCNSYDKCVPAHWVCDGVLDCLDSSDETNCSAPASEPPGSLSLQ heavy: QVQLVESGGGVVQPGRSLRLSCAASGFTFSRYDMHWVRQAPGKGLEWVAIIFYDGSNKYYADPVKGRFTISRDNSKNTLYLQMNSLRAEDTAVYYCATLAAAFDYWGQGTLVTVSSASTKGPSVFPLAPCSRSTSESTAALGCLVKDYFPEPVTVSWNSGALTSGVHTFPAVLQSSGLYSLSSVVTVPSSNFGTQTYTCNVDHKPSNTKVDKTVERKCCVECPPCPAPPVAGPSVFLFPPKPKDTLMISRTPEVTCVVVDVSHEDPEVQFNWYVDGVEVHNAKTKPREEQFNSTFRVVSVLTVVHQDWLNGKEYKCKVSNKGLPAPIEKTISKTKGQPREPQVYTLPPSREEMTKNQVSLTCLVKGFYPSDIAVEWESNGQPENNYKTTPPMLDSDGSFFLYSKLTVDKSRWQQGNVFSCSVMHEALHNHYTQKSLSLSPGK | binds
2 | P7652 (bispecific antibody, human IgG2, lambda, also called C140162) light: YVLTQPPSVSVAPGQTARITCGGNNIGSKSVHWYQQKPGQAPVLVVYDDSDRPSEIPERFSGSNSGNTATLTISRVEAGDEADYYCQVWDSSSDHVVFGGGTRLTVLGQPKAAPSVTLFPPSSEELQANKATLVCLISDFYPGAVTVAWKADSSPVKAGVETTTPSKQSNNKYAASSYLSLTPEQWKSHRSYSCQVTHEGSTVEKTVAPTECSSSGGSCPAYTEFLCADSDRCFPSEWRCDGEMDCVDGSDELHCAYHTCAPNQFRCNSYDKCVPAHWVCDGVLDCLDSSDETNCSAPASEPPGSLSLQ heavy: QVQLVESGGGVVQPGRSLRLSCAASGFTFSRYDMHWVRQAPGKGLEWVAIIFYDGSNKYYADPVKGRFTISRDNSKNTLYLQMNSLRAEDTAVYYCATLAAAFDYWGQGTLVTVSSASTKGPSVFPLAPCSRSTSESTAALGCLVKDYFPEPVTVSWNSGALTSGVHTFPAVLQSSGLYSLSSVVTVPSSNFGTQTYTCNVDHKPSNTKVDKTVERKCCVECPPCPAPPVAGPSVFLFPPKPKDTLMISRTPEVTCVVVDVSHEDPEVQFNWYVDGVEVHNAKTKPREEQFNSTFRVVSVLTVVHQDWLNGKEYKCKVSNKGLPAPIEKTISKTKGQPREPQVYTLPPSREEMTKNQVSLTCLVKGFYPSDIAVEWESNGQPENNYKTTPPMLDSDGSFFLYSKLTVDKSRWQQGNVFSCSVMHEALHNHYTQKSLSLSPGK | binds
3 | P7068 (bispecific antibody, human IgG2, lambda, also called P7011; Ab-Avimer-1 (P7068A)) heavy: SGGSCPAYTEFLCKDSDRCFPSEWRCDGEMDCVDGSDELHCAYHTCAPNQFRCNSYDKCVPAHWVCDGVLDCLDSSDETNCSAPASEPPGSLSQVQLVESGGGVVQPGRSLRLSCAASGFTFSRYDMHWVRQAPGKGLEWVAIIFYDGSNKYYADPVKGRFTISRDNSKNTLYLQMNSLRAEDTAVYYCATLAAAFDYWGQGTLVTVSSASTKGPSVFPLAPCSRSTSESTAALGCLVKDYFPEPVTVSWNSGALTSGVHTFPAVLQSSGLYSLSSVVTVPSSNFGTQTYTCNVDHKPSNTKVDKTVERKCCVECPPCPAPPVAGPSVFLFPPKPKDTLMISRTPEVTCVVVDVSHEDPEVQFNWYVDGVEVHNAKTKPREEQFNSTFRVVSVLTVVHQDWLNGKEYKCKVSNKGLPAPIEKTISKTKGQPREPQVYTLPPSREEMTKNQVSLTCLVKGFYPSDIAVEWESNGQPENNYKTTPPMLDSDGSFFLYSKLTVDKSRWQQGNVFSCSVMHEALHNHYTQKSLSLSPGK light: YVLTQPPSVSVAPGQTARITCGGNNIGSKSVHWYQQKPGQAPVLVVYDDSDRPSEIPERFSGSNSGNTATLTISRVEAGDEADYYCQVWDSSSDHVVFGGGTRLTVLGQPKAAPSVTLFPPSSEELQANKATLVCLISDFYPGAVTVAWKADSSPVKAGVETTTPSKQSNNKYAASSYLSLTPEQWKSHRSYSCQVTHEGSTVEKTVAPTECS | binds
4 | P7653 (bispecific antibody, human IgG2, lambda, also called C140163) heavy: SGGSCPAYTEFLCADSDACFPSEWACDGEMDCVDGSDELHCAYHTCAPNQFACNSYDACVPAHWVCDGVLDCLDSSDETNCSAPASEPPGSLSQVQLVESGGGVVQPGRSLRLSCAASGFTFSRYDMHWVRQAPGKGLEWVAIIFYDGSNKYYADPVKGRFTISRDNSKNTLYLQMNSLRAEDTAVYYCATLAAAFDYWGQGTLVTVSSASTKGPSVFPLAPCSRSTSESTAALGCLVKDYFPEPVTVSWNSGALTSGVHTFPAVLQSSGLYSLSSVVTVPSSNFGTQTYTCNVDHKPSNTKVDKTVERKCCVECPPCPAPPVAGPSVFLFPPKPKDTLMISRTPEVTCVVVDVSHEDPEVQFNWYVDGVEVHNAKTKPREEQFNSTFRVVSVLTVVHQDWLNGKEYKCKVSNKGLPAPIEKTISKTKGQPREPQVYTLPPSREEMTKNQVSLTCLVKGFYPSDIAVEWESNGQPENNYKTTPPMLDSDGSFFLYSKLTVDKSRWQQGNVFSCSVMHEALHNHYTQKSLSLSPGK light: YVLTQPPSVSVAPGQTARITCGGNNIGSKSVHWYQQKPGQAPVLVVYDDSDRPSEIPERFSGSNSGNTATLTISRVEAGDEADYYCQVWDSSSDHVVFGGGTRLTVLGQPKAAPSVTLFPPSSEELQANKATLVCLISDFYPGAVTVAWKADSSPVKAGVETTTPSKQSNNKYAASSYLSLTPEQWKSHRSYSCQVTHEGSTVEKTVAPTECS | binds
5 | P7079 (bispecific antibody, human IgG2, lambda, also called P6887; Ab-Avimer-6 (P7079A)) heavy: QVQLVESGGGVVQPGRSLRLSCAASGFTFSRYDMHWVRQAPGKGLEWVAIIFYDGSNKYYADPVKGRFTISRDNSKNTLYLQMNSLRAEDTAVYYCATLAAAFDYWGQGTLVTVSSASTKGPSVFPLAPCSRSTSESTAALGCLVKDYFPEPVTVSWNSGALTSGVHTFPAVLQSSGLYSLSSVVTVPSSNFGTQTYTCNVDHKPSNTKVDKTVERKCCVECPPCPAPPVAGPSVFLFPPKPKDTLMISRTPEVTCVVVDVSHEDPEVQFNWYVDGVEVHNAKTKPREEQFNSTFRVVSVLTVVHQDWLNGKEYKCKVSNKGLPAPIEKTISKTKGQPREPQVYTLPPSREEMTKNQVSLTCLVKGFYPSDIAVEWESNGQPENNYKTTPPMLDSDGSFFLYSKLTVDKSRWQQGNVFSCSVMHEALHNHYTQKSLSLSPGKSSGGSCAPNQFRCNSYDKCVPAHWVCDGVLDCLDSSDETNCSAPASEPPGSLCPAYTEFLCKDSDRCFPSEWRCDGEMDCVDGSDELHCAYHTSLQ light: YVLTQPPSVSVAPGQTARITCGGNNIGSKSVHWYQQKPGQAPVLVVYDDSDRPSEIPERFSGSNSGNTATLTISRVEAGDEADYYCQVWDSSSDHVVFGGGTRLTVLGQPKAAPSVTLFPPSSEELQANKATLVCLISDFYPGAVTVAWKADSSPVKAGVETTTPSKQSNNKYAASSYLSLTPEQWKSHRSYSCQVTHEGSTVEKTVAPTECS | binds
